Holding throughout (assay): SPR, mAb captured, C2 mutant analyte;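 also: Anti-C2 mAbs captured on goat anti-human IgG Biacore CM5 chips, alanine or serine C2 surface mutants flowed over at 37 °C, double-referenced sensorgrams fitted to a 1:1 binding model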
On the technique in general: Surface plasmon resonance follows binding to a sensor surface in real time, without labels.

In one test the target is T1, human C2 S473A (human, UniProt P06681 21-752).
T1 sequence: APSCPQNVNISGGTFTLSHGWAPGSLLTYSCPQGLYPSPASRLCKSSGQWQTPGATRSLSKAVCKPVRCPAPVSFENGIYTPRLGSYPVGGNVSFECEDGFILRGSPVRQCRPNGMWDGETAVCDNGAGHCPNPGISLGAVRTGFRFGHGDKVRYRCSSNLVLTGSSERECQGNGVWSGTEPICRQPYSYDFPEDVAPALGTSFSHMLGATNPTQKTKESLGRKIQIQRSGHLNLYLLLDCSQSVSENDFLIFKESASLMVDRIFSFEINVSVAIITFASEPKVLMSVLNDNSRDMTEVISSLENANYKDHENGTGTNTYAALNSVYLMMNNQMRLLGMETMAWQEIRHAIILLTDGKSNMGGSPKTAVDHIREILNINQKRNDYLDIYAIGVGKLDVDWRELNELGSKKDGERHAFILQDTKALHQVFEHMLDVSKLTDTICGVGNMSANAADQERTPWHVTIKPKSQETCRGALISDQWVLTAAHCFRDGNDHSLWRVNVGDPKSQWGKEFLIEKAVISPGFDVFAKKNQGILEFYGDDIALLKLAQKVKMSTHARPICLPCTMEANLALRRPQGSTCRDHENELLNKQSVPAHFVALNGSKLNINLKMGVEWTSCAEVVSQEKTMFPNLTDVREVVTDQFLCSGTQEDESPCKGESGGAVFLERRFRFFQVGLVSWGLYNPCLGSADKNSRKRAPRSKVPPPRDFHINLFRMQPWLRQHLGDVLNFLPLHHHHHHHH

Another test addresses T2, human C2 F270A (human, UniProt P06681 21-752).
T2 sequence: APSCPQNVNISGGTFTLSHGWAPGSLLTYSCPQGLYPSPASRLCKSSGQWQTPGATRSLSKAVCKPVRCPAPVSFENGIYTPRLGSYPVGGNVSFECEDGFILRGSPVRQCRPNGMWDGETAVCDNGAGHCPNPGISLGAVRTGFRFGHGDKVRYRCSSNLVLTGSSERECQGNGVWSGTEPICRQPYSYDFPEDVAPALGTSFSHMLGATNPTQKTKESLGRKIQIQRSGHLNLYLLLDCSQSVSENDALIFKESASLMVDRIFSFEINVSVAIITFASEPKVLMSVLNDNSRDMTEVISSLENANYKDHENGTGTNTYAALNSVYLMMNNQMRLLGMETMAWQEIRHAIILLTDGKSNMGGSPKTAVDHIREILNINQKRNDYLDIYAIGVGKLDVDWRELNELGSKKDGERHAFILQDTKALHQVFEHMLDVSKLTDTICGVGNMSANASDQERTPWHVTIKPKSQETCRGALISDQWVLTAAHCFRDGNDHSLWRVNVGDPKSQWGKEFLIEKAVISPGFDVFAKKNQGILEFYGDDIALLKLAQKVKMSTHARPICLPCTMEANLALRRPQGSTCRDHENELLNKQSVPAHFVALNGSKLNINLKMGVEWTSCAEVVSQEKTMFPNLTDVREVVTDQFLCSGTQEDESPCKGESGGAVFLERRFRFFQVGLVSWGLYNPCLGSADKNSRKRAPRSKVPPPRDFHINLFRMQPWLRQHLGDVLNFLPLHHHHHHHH

The target in another test is T3, human C2 I272A (human, UniProt P06681 21-752).
T3 sequence: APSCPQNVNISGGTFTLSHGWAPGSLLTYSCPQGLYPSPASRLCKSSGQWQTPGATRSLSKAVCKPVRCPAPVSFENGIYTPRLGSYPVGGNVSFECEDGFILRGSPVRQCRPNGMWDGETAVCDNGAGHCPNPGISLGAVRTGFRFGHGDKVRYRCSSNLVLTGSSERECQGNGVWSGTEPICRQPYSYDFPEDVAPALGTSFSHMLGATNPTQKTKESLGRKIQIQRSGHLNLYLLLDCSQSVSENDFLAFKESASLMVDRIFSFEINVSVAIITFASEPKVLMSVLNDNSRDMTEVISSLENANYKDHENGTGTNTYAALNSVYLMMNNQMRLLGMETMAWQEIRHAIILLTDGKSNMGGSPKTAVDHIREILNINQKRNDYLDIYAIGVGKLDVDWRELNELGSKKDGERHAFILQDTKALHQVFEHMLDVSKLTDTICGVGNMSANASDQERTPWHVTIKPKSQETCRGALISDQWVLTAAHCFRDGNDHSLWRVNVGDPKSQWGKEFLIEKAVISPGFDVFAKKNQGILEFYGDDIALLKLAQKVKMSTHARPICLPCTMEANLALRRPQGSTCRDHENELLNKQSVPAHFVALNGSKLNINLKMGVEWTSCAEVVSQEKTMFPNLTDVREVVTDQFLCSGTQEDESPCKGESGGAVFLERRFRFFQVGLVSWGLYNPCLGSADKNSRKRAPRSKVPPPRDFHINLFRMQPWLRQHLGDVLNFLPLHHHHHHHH

For a further test, the target named is T4, human C2 G677A (human, UniProt P06681 21-752).
T4 sequence: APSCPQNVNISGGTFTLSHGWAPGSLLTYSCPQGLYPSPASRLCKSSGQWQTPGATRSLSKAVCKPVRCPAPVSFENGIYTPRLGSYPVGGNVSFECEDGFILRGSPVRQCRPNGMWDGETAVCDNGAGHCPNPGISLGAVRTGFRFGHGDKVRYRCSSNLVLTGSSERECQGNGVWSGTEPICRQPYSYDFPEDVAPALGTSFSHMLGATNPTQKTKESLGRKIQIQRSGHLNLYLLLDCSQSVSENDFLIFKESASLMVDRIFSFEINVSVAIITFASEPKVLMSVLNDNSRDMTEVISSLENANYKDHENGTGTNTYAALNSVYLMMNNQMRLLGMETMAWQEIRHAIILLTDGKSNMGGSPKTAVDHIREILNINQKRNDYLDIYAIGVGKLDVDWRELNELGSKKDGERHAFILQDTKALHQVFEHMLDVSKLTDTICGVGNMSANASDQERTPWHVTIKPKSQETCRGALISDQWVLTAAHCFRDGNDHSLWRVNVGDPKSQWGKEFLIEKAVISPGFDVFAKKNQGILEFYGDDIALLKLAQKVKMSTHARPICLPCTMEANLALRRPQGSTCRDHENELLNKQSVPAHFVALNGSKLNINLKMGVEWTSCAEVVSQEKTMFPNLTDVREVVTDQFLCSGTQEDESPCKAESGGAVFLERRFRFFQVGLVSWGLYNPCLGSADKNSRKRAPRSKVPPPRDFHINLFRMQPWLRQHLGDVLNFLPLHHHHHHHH

Data on one molecule can be found in US20220332804A1 (CSL INNOVATION, published 2022).

B1: RF16-214 (antibody, V domains shown)
VH: EVQLLESGGGLVQPGGSLRLSCAASGFTFSWYQMMWVRQAPGKGLEWVSRIYPSGGGTAYADSVKGRFTISRDNSKNTLYLQMNSLRAEDTAVYYCARDAGYGDNWGQGTLVTVSS
VL: QSALTQPPSVSVSPGQTASITCSGDKLGEKYASWYQQKAGQSPVMVIYQDRKRPSGIPERFSGSNSGNTATLTISGTQAMDEADYYCQAWDTRAVVFGGGTKLTVLG
What is called Kd is the equilibrium constant for the complex coming apart. Regarding B1, the Kd in the test with human C2 S473A was 68.7 nM; with human C2 I272A, 477 nM; with human C2 G677A, 28.1 nM. Besides, the binding result in the test with human C2 F270A is given as “no binding”.
